The results in this text go back to article PMC10526015.

In the first assay the target is FcγR on THP-1 cells (FcγRI and FcγRII). Briefly: flow cytometry on cells; THP-1 cells, 100 nM uncomplexed IgG, 30 min on ice, PBSF; goat anti-human IgG R-PE; median fluorescence intensity.
ADI-26906 IgG1 L234A/L235E (antibody) yielded an MFI of 192 MFI.
ADI-26906 IgG1 L234A/L235K (antibody) had an MFI of 140 MFI.
Substance ADI-26906 IgG1 L234A/L235A (antibody) registered an MFI of 491 MFI.
On the same count and under the same terms, with “ADI-26906 IgG1 L234A/L235A/G237A (antibody)” the figure was 150 MFI; with ADI-26906 IgG1 L234F/L235K (antibody), 386 MFI; with ADI-26906 IgG1 L234E/L235K (antibody), 176 MFI.
ADI-26906 IgG1 L234F/L235E (antibody) yielded an MFI of 369 MFI.
On the same count and under the same terms, in the case of ADI-26906 IgG1 L235A/G237A (antibody) it was 192 MFI; in that of ADI-26906 IgG1 L234A/G237A (antibody), 184 MFI.

Another assay has the same target. The description is as above. The source holds these as a separate data set.
In turn, ADI-26906 IgG1 L234A/L235E (antibody) registered an MFI of 127 MFI.
On the same count and under the same terms, in the case of ADI-26906 IgG1 L234A/L235A (antibody) it was 270 MFI.

The target is the same in a further assay. The experiment in a line: flow cytometry on cells; THP-1 cells; ~100 nM IgG pre-complexed with 10 nM CD3ε-BSA (CD3ε peptide 21–47 on BSA) 20 min RT, highly avid; 30 min on ice; goat anti-human IgG PE; median fluorescence intensity. On the technique in general: In flow cytometry, cells or beads pass a laser one at a time.
ADI-26906 IgG1 L234A/L235E (antibody) had an MFI of 5300 MFI.
In the case of “ADI-26906 IgG1 LALA-K322A (L234A/L235A/K322A) (antibody)”, the MFI was 4390 MFI.
Substance “ADI-26906 IgG1 LALA-A330S/P331S (L234A/L235A/A330S/P331S) (antibody)” showed an MFI of 3840 MFI.
On the same count and under the same terms, in the case of “ADI-26906 IgG1 LALA-L309V (L234A/L235A/L309V) (antibody)” it was 4850 MFI; in that of “ADI-26906 IgG1 LALE-L328A (L234A/L235E/L328A) (antibody)”, 7040 MFI.
The same measure, in the same setting: in the case of “ADI-26906 IgG1 LALA-H268Q (L234A/L235A/H268Q) (antibody)” it was 4800 MFI; in that of “ADI-26906 IgG1 LALA-D270A (L234A/L235A/D270A) (antibody)”, 2270 MFI.
Still for that read-out and setting: in the case of ADI-26906 IgG1 L234A/L235A (antibody) it was 5270 MFI; in that of “ADI-26906 IgG1 LALA-L328A (L234A/L235A/L328A) (antibody)”, 6420 MFI.
Consider “ADI-26906 IgG1 LALE-K322A (L234A/L235E/K322A) (antibody)”, for which the MFI was found to be 2320 MFI.
The substance “ADI-26906 IgG1 LALA-L309A (L234A/L235A/L309A) (antibody)” showed an MFI of 4790 MFI.
Same read-out and setting: with “ADI-26906 IgG1 LALE-L309A (L234A/L235E/L309A) (antibody)” the figure was 2760 MFI; with “ADI-26906 IgG1 LALA-Y296F (L234A/L235A/Y296F) (antibody)”, 3810 MFI.
For the substance “ADI-26906 IgG1 LALE-H268Q (L234A/L235E/H268Q) (antibody)”, the MFI was 4000 MFI.
Still for that read-out and setting: in the case of “ADI-26906 IgG1 LALA-A330S (L234A/L235A/A330S) (antibody)” it was 4440 MFI; in that of “ADI-26906 IgG1 LALE-A330S/P331S (L234A/L235E/A330S/P331S) (antibody)”, 1390 MFI.
Same read-out and setting: in the case of “ADI-26906 IgG1 LALA-A327G (L234A/L235A/A327G) (antibody)” it was 7010 MFI.
On the same count and under the same terms, with “ADI-26906 IgG1 LALE-L309V (L234A/L235E/L309V) (antibody)” the figure was 3540 MFI; with “ADI-26906 IgG1 LALE-A330S (L234A/L235E/A330S) (antibody)”, 2260 MFI; with “ADI-26906 IgG1 LALE-D270A (L234A/L235E/D270A) (antibody)”, 546 MFI.
As for “ADI-26906 IgG1 LALE-P331S (L234A/L235E/P331S) (antibody)”, the MFI turned out to be 1760 MFI.
“ADI-26906 IgG1 LALA-P331S (L234A/L235A/P331S) (antibody)” displayed an MFI of 4220 MFI.

The target in the next assay is ADI-26906 IgG1 LALE-D265A (L234A/L235E/D265A) (human). The experiment in a line: bead-based flow cytometry (Dynal bead assay); biotinylated CD3ε peptide on streptavidin Dyna Beads, saturated with antibody; beads incubated with C1q alone or with C1q and human complement C3, 25 min RT, PBSF; anti-C1q APC and anti-C3 PE.
ADI-26906 IgG1 LALE-D265A (L234A/L235E/D265A) (human), sequence (heavy, as listed by the source, chain 1 of 2): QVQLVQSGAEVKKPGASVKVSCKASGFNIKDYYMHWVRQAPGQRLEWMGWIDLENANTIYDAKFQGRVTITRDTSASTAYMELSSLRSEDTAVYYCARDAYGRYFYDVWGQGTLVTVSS
ADI-26906 IgG1 LALE-D265A (L234A/L235E/D265A) (human), sequence (light, as listed by the source, chain 2 of 2): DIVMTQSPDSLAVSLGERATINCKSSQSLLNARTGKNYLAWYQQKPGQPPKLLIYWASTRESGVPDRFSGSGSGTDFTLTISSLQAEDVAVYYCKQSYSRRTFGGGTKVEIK
human complement C1q (complex): the C1q Dynal FACS MFI came out at 2280 MFI.

The target of another assay is ADI-26906 IgG1 LALA-D265A (L234A/L235A/D265A) (human). The description is as above.
ADI-26906 IgG1 LALA-D265A (L234A/L235A/D265A) (human), sequence (heavy, as listed by the source, chain 1 of 2): as the sequence (heavy, as listed by the source, chain 1 of 2) above
ADI-26906 IgG1 LALA-D265A (L234A/L235A/D265A) (human), sequence (light, as listed by the source, chain 2 of 2): as the sequence (light, as listed by the source, chain 2 of 2) above
As for human complement C1q (complex), the C1q Dynal FACS MFI came to 1950 MFI.
